Test results as given in article PMC6009700.
Read-outs that look alike come from different tables or passages of the source.

T1: TubR (Clostridium botulinum prophage c-st, UniProt Q331T6 1-81)
T1 sequence: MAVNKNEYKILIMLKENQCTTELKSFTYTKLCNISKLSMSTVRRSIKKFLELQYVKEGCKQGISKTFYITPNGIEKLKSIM

B1: SF1b (dsDNA)
DNA 1: AAATAAACATGATATGAACATATATTGACTACAGTTTGACATAGTTTTGAC
DNA 2: GTCAAAACTATGTCAAACTGTAGTCAATATATGTTCATATCATGTTTATTT
B2: SF3b (dsDNA)
DNA 1: TGAACATATAGTGAACATAATACAACTAGTACAAGAATGTAGTTTGACTAT
DNA 2: ATAGTCAAACTACATTCTTGTACTAGTTGTATTATGTTCACTATATGTTCA
B3: Shuffle DNA (dsDNA)
DNA 1: AATCGTAAAATATTACAATATAAGGTAACAAGATATTCCTTTTTGGAGCAT
DNA 2: ATGCTCCAAAAAGGAATATCTTGTTACCTTATATTGTAATATTTTACGATT
B4: CP1 (dsDNA)
DNA 1: TATAGTAAAGAAAGAAATAAACATGATATGAACATATATTGACTACAGTTTGACATAGTTTTGACTATGATATGAACAAAATAAGAATGTATTA
DNA 2: TAATACATTCTTATTTTGTTCATATCATAGTCAAAACTATGTCAAACTGTAGTCAATATATGTTCATATCATGTTTATTTCTTTCTTTACTATA
B5: SF1 (dsDNA)
DNA 1: TAAGGAATATAGTATAATATAGTAAAGAAAGAAATAAACATGATATGAACATATATTGACTACAGTTTGACATAGTTTTGACTATGATATGAACAAAATAAGAATGTATTATGAATATTTTCTTACATTACTGCGACTACTATCAG
DNA 2: CTGATAGTAGTCGCAGTAATGTAAGAAAATATTCATAATACATTCTTATTTTGTTCATATCATAGTCAAAACTATGTCAAACTGTAGTCAATATATGTTCATATCATGTTTATTTCTTTCTTTACTATATTATACTATATTCCTTA
B6: SF2 (dsDNA)
DNA 1: AGAATATACTTTGAATATAATTAGACTTAAACAAGATTACTTTTAGACTATAGTATAAATATAATTAGAAAATAATTTGAATAATTTATGAAAATAAGTACACATTTTCTAAGGAATATAGTATAATATAGTAAAGAAAGA
DNA 2: TCTTTCTTTACTATATTATACTATATTCCTTAGAAAATGTGTACTTATTTTCATAAATTATTCAAATTATTTTCTAATTATATTTATACTATAGTCTAAAAGTAATCTTGTTTAAGTCTAATTATATTCAAAGTATATTCT
B7: SF3 (dsDNA)
DNA 1: GTTAATTGTAGCGTTAAGTGAGACATAGAATTGAACATATAGTGAACATAATACAACTAGTACAAGAATGTAGTTTGACTATAATTTGAACATATTTAGAATATACTTTGAATATAATTAGACTTAAACAAG
DNA 2: CTTGTTTAAGTCTAATTATATTCAAAGTATATTCTAAATATGTTCAAATTATAGTCAAACTACATTCTTGTACTAGTTGTATTATGTTCACTATATGTTCAATTCTATGTCTCACTTAACGCTACAATTAAC

Assays:
TubR [1] = target: T1, TubR; test: fluorescence anisotropy
TubR [2] = target: T1, TubR; test: fluorescence anisotropy; remark: listed apart in the source
TubR [3] = target: T1, TubR; test: EMSA
TubR [4] = target: T1, TubR; test: EMSA; remark: listed apart in the source

Binder | binding result (TubR [3]) | further results
B1 |  | apparent K (half saturation) (TubR [1]): 184 ± 4.04 nM
B2 |  | apparent K (half saturation) (TubR [2]): 138 ± 7.7 nM
B3 | no binding | 
B4 |  | binding result (TubR [4]): binds
B5 | binds | 
B6 | binds | 
B7 | binds | 
